The values that follow come from patent US20120237528A1 (Janssen / Centocor, published 2012).

To fix the notation:
T1: Cynomolgous monkey (cyno) TF-ECD with His Tag (cynomolgus monkey, UniProt P13726 33-251 (human entry))
T1 construct: also called cyno antigen
T1 chain: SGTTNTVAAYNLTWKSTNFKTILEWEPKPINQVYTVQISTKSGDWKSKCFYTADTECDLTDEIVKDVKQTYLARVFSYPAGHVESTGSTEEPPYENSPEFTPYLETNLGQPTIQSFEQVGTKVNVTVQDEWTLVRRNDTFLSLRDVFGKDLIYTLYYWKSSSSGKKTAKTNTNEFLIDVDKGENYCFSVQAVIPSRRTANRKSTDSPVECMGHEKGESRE

B1: M10 (antibody, V domains shown)
VH: EVQLVQSGAEVKKPGESLRISCKGSGYTFITYWIEWVRQMPGKGLEWMGDILPGSGSTNYNENFKGHVTISADKSISTAYLQWSSLKASDTAMYYCARSGYYGNSGFAYWGQGTLVTVSS
VL: DIVMTQTPLSLPVTPGEPASISCKSSQSLLSSGNQKNYLTWYLQKPGQSPQLLIYWASTRESGVPDRFSGSGSGTDFTLKISRVEAEDVGVYYCQNDYTYPLTFGQGTKLEIK
notes: complete MAb; FR4 is its own entry; also called H15/L3
B2: murine antibody 10H10 (antibody, V domains shown)
VH: QVHLQQSGAELMKPGASVKISCKASGYTFITYWIEWVKQRPGHGLEWIGDILPGSGSTNYNENFKGKATFTADSSSNTAYMQLSSLTSEDSAVYYCARSGYYGNSGFAYWGQGTLVTVSA
VL: DIVMTQSPSSLTVTAGEKVTMSCKSSQSLLSSGNQKNYLTWYQQIPGQPPKLLIYWASTRESGVPDRFTGSGSGTDFTLTINSVQAEDLAVYYCQNDYTYPLTFGAGTKLELK
B3: M46 (antibody, V domains shown)
VH: QVQLVQSGAEVKKPGASVKVSCKASGYTFITYWIEWVRQAPGQGLEWMGDILPGSGSTNYNENFKGRVTMTTDTSTSTAYMELRSLRSDDTAVYYCARSGYYGNSGFAYWGQGTLVTVSS
VL: B1 VL with T7S
notes: complete MAb; FR4 is its own entry; also called H20/L4
B4: M42 (antibody, V domains shown)
VH: B3 VH with A16S, M70I, T72A, T74E, R84S, D89E
VL: B1 VL with L11S, P15L, E17Q, Y42L, L43Q, K45R, S49P, Q51R, S73A
notes: complete MAb; FR4 is its own entry; also called H19/L7
B5: M68 (antibody, V domains shown)
VH: B3 VH with A16S, N61A, E62Q, N63K, K65Q, M70I, T72A, T74E, R84S, D89E
VL: B1 VL with P12S, E17Q, S49P
notes: complete MAb; FR4 is its own entry; also called H23/L5
B6: M26 (antibody, V domains shown)
VH: B3 VH with G44R, M70I, T72R, T76A, R84S, D89E
VL: B1 VL with P12S, E17Q, S49P
notes: complete MAb; FR4 is its own entry; also called H17/L5
B7: M37 (antibody, V domains shown)
VH: B3 VH with A16S, M70I, T72A, T74E, R84S, D89E
VL: DIVMTQSPDSLAVSLGERATINCKSSQSLLSSGNQKNYLTWYQQKPGQPPKLLIYWASTRESGVPDRFSGSGSGTDFTLTISSLQAEDVAVYYCQNDYTYPLTFGQGTKLEIK
notes: complete MAb; FR4 is its own entry; also called H19/L2
B8: M53 (antibody, V domains shown)
VH: EVQLVQSGAEVKKPGATVKISCKVSGYTFITYWIEWVQQAPGKGLEWMGDILPGSGSTNYNENFKGRVTITADTSTDTAYMELSSLRSEDTAVYYCATSGYYGNSGFAYWGQGTLVTVSS
VL: B1 VL with T7S
notes: complete MAb; FR4 is its own entry; also called H21/L4
B9: M75 (antibody, V domains shown)
VH: B8 VH with N61A, N63K, K65Q
VL: B1 VL with P12S, E17Q, S49P
notes: complete MAb; FR4 is its own entry; also called H24/L5
B10: M21 (antibody, V domains shown)
VH: B3 VH with T72R, A79V, R84S, D89E
VL: B1 VL with L11S, P15L, E17Q, Y42L, L43Q, K45R, S49P, Q51R, S73A
notes: complete MAb; FR4 is its own entry; also called H16/L7
B11: M14 (antibody, V domains shown)
VH: B1 VH
VL: B1 VL with L11S, P15L, E17Q, Y42L, L43Q, K45R, S49P, Q51R, S73A
notes: complete MAb; FR4 is its own entry; also called H15/L7
B12: M28 (antibody, V domains shown)
VH: B3 VH with G44R, M70I, T72R, T76A, R84S, D89E
VL: B1 VL with L11S, P15L, E17Q, Y42L, L43Q, K45R, S49P, Q51R, S73A
notes: complete MAb; FR4 is its own entry; also called H17/L7
B13: M77 (antibody, V domains shown)
VH: B8 VH with N61A, N63K, K65Q
VL: B1 VL with L11S, P15L, E17Q, Y42L, L43Q, K45R, S49P, Q51R, S73A
notes: complete MAb; FR4 is its own entry; also called H24/L7
B14: M49 (antibody, V domains shown)
VH: B3 VH
VL: B1 VL with L11S, P15L, E17Q, Y42L, L43Q, K45R, S49P, Q51R, S73A
notes: complete MAb; FR4 is its own entry; also called H20/L7
B15: M70 (antibody, V domains shown)
VH: B3 VH with A16S, N61A, E62Q, N63K, K65Q, M70I, T72A, T74E, R84S, D89E
VL: B1 VL with L11S, P15L, E17Q, Y42L, L43Q, K45R, S49P, Q51R, S73A
notes: complete MAb; FR4 is its own entry; also called H23/L7
B16: M74 (antibody, V domains shown)
VH: B8 VH with N61A, N63K, K65Q
VL: B1 VL with T7S
notes: complete MAb; FR4 is its own entry; also called H24/L4
B17: M73 (antibody, V domains shown)
VH: B8 VH with N61A, N63K, K65Q
VL: B1 VL
notes: complete MAb; FR4 is its own entry; also called H24/L3
B18: M67 (antibody, V domains shown)
VH: B3 VH with A16S, N61A, E62Q, N63K, K65Q, M70I, T72A, T74E, R84S, D89E
VL: B1 VL with T7S
notes: complete MAb; FR4 is its own entry; also called H23/L4
B19: M66 (antibody, V domains shown)
VH: B3 VH with A16S, N61A, E62Q, N63K, K65Q, M70I, T72A, T74E, R84S, D89E
VL: B1 VL
notes: complete MAb; FR4 is its own entry; also called H23/L3
B20: M72 (antibody, V domains shown)
VH: B8 VH with N61A, N63K, K65Q
VL: B7 VL
notes: complete MAb; FR4 is its own entry; also called H24/L2

Residue numbers refer to the chain shown, from its start.

The first experiment has as its target T1, Cynomolgous monkey (cyno) TF-ECD with …. Briefly: Biacore. (In general: SPR reads the build-up and loss of mass on a sensor chip optically.)
Turning to B1, the Kd was determined as 1.57 nM.

A further experiment addresses Innovin, lyophilized recombinant human tissue factor combined with phospholipids (human, UniProt P13726 33-295, limits assumed). Put plainly: cell-based or functional assay.
For B2, the “T½ Max (seconds), coagulation of human plasma” value (“T½ Max (seconds), coagulation” for short) was determined as 191 s.
For the molecule B1, the “T½ Max (seconds), coagulation” value amounted to 196 s.
Take B3: the “T½ Max (seconds), coagulation” value came out at 195 s.
Take B4: the “T½ Max (seconds), coagulation” value was determined as 202 s.
Same read-out and setting: the same measure for B5: 207 s.
Consider B6, for which the “T½ Max (seconds), coagulation” value was 186 s.
For B7, the “T½ Max (seconds), coagulation” value was 196 s.

The next experiment deals with endogenous human tissue factor on MDA-MB-231 breast cancer cells (human, UniProt P13726 33-295). Put plainly: cell-based or functional assay.
For B2, the “% IL-8 Inhibition” value worked out at 93.9%.
On to B1, for which the “% IL-8 Inhibition” value was determined as 90.7%.
Same read-out and setting: next, B3: 82.5%.
As to B4, the “% IL-8 Inhibition” value was found to be 86%.
In the case of B5, the “% IL-8 Inhibition” value was 89.8%.
In the case of B6, the “% IL-8 Inhibition” value is 79.1%.
Take B7: the “% IL-8 Inhibition” value came to 71.2%.

For the next experiment, the target named is T1, Cynomolgous monkey (cyno) TF-ECD with …. Put plainly: direct ELISA of supernatants, chemiluminescent. As to the method:
A solution Phase direct TF binding ELISA using chemiluminescent detection was used to rank the top binders from human framework adaptation library. The 96 well black maxisorp plates were coated with 100 uL of 4 ug/ml Goat anti human IgG FC diluted in carbonate-bicarbonate buffer, pH 9.4 at 4° C. overnight and then washed thrice with wash buffer (PBS with 0.05% Tween-20 solution) and blocked with […] 1% BSA/10 mM PBS solution for 1 hour followed by a washing as before. Samples or standards were diluted to 50 ng/ml in Assay Buffer (1% BSA in PBS+05% Tween) and 100 ul was added to the assay plate at room temperature for 1 hour with shaking. The plates were washed thrice and 100 ul per well of human or cynomologus TF-ECD with His Tag was added at 100 ng/ml diluted in Assay Buffer and incubate for 2 hours at room temperature. After washing, 100 ul per well of Qiagen peroxidase conjugated penta-his at 1:2000 dilution in assay buffer was added and incubated 1 hour at room temperature with shaking. The BM ChemiLum Substrate (BM Chemilum, POD, Roche) was made freshly at 1:100 dilution into Buffer and 100 ul added to the plates after a final wash. After 10 minutes the plates are read on Perkin Elmer Envision Reader, BM ChemiLum program.
For primary screening of library variants in crude supernatants, samples or controls were normalized to 50 ng/ml in spent FreeStyle 293 HEK media (Gibco) and assayed at single concentration determinations. In the present assay, the concentration of antibody was 5 ng (0.1 ml used) and the TF ECD and the antigen was His6-TF-ECD₁₋₂₁₉ used at a final concentration of 10 ng/well.
With B8, the binding result was “no binding (tested: 50 ng/ml)”.

Another experiment deals with T2, recombinant extracellular domain (ECD) of human TF, amino acid 1-219 of the mature chain, C-terminal His6-tag (human, UniProt P13726 33-251).
T2 construct: expressed in a mammalian system; used for ELISA and Biacore; biotinylated by NHS-ester for the Fab ELISA; also called His6-TF-ECD1-219; HumanTF1-219
Put plainly: direct ELISA, 50 ng/ml.
Consider B9, for which the binding result is on record as “binds”.
Consider B10, for which the binding result is “binds”.
On to B11, for which the binding result is given as “binds”.
Consider B12, for which the binding result is “binds”.
Consider B13, for which the binding result is recorded as “binds”.
Regarding B14, the binding result is “binds”.
As to B15, the binding result was “binds”.
As for B16, the binding result is “binds”.
Still for that read-out and setting: the same measure for B17: “binds”; for B18: “binds”.
Same read-out and setting: the same measure for B19: “binds”; for B20: “binds”.

The target of another experiment is T2, recombinant extracellular domain (ECD) …. Briefly: Biacore.
Take B3: the Kd stood at 0.49 nM, the koff came out at 4.4e-05 s⁻¹ and the kon is 90000 M⁻¹ s⁻¹.
With B4, the Kd amounted to 1.02 nM, the koff is 8.2e-05 s⁻¹ and the kon was determined as 80400 M⁻¹ s⁻¹.
Taken in the same sequence, the figures for B5 were 1.6 nM, 0.000103 s⁻¹ and 64300 M⁻¹ s⁻¹.
For the molecule B6, the equilibrium dissociation constant (Kd) is 1.13 nM, the koff came out at 9.3e-05 s⁻¹ and the kon is 82600 M⁻¹ s⁻¹.
In the case of B7, the Kd was 0.54 nM, the koff worked out at 3.7e-05 s⁻¹ and the kon was 69000 M⁻¹ s⁻¹.

Another experiment addresses T1, Cynomolgous monkey (cyno) TF-ECD with …. Briefly: TF-ECD binding ELISA, chemiluminescent. A general note: An ELISA detects its analyte on a solid surface through an enzyme-linked reagent.
Take B1: the concentration giving a half-maximal response (EC50) stood at 0.0196 µg/mL.

A further experiment deals with T2, recombinant extracellular domain (ECD) …. Put plainly: TF-ECD binding ELISA, chemiluminescent.
B1: the EC50 came out at 0.0105 µg/mL.

By Kd is commonly meant a measure of binding affinity in units of concentration. The term koff denotes the first-order rate constant of dissociation. What is called kon is a measure of how fast the partners come together. By EC50 is commonly meant the concentration that produces a half-maximal response.
